Measurements as given in patent publication US6673354B2, “Compositions and methods for treating papillomavirus-infected cells” (priority 1998, dated 2004).
Where no end group is shown, it is not given here.

Biological target: T1, interaction between HPV16 E1 and E2 (Human papillomavirus type 16, UniProt P03114)
T1 construct: made in house; host or cells: Hi-Five insect cells infected with recombinant baculovirus (pVL1392); nuclear extracts
T1 sequence (P03114 whole entry, looked up): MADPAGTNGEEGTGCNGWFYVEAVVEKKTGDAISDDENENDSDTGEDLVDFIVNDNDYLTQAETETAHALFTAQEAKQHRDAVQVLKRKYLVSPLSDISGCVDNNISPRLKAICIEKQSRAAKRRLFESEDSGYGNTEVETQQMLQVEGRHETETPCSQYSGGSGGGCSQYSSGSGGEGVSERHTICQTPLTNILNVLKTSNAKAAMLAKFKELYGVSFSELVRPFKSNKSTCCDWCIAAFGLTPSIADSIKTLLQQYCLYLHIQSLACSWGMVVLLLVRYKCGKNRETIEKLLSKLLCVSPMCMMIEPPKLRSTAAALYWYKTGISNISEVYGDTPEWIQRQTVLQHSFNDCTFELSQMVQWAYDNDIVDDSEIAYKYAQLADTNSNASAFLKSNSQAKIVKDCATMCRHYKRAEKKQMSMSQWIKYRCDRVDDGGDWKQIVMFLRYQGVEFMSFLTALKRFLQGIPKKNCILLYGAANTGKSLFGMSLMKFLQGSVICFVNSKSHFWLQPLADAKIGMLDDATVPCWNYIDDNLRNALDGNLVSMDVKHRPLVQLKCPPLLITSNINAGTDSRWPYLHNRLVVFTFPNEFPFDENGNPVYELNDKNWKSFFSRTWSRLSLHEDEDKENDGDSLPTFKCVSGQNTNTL
Experiment: In vitro HPV E1-E2 binding assay (co-immunoprecipitation / Western blot), HPV16 E1 and HPV16 E2
Conditions: increasing peptide concentrations, FIG. 6A
Protocol: In vitro HPV E1-E2 binding assay. 300-500 ng protein from HPV16 or HPV11 EE-E1 expressing recombinant baculovirus infected cell nuclear extracts and 80-120 ng from HPV E2 baculovirus infected cell nuclear extracts were incubated in 500 μl NET-gel buffer (50 mM Tris-HCl pH7.5, 150 mM NaCl, 0.1% NP-40, 1 mM EDTA, 0.25% gelatin) at 4° C. for one hour. 1-2 μg anti-EE monoclonal antibody was added and incubated with shaking at 4° C. for one hour. Immune complexes were precipitated with protein-G agarose beads and washed twice for 30 minutes with ice cold NET-gel buffer. Precipitated proteins were detected by Western blot using appropriate primary antibodies and anti-rabbit IgG HRP or anti-mouse IgG HRP (Amersham). Membranes were blocked for one hour in TNET (10 mM Tris 7.5, 2.5 mM EDTA, 50 mM NaCl, 0.1% Tween-20) containing 4% (w/v) dry milk. Washes and antibody reactions were carried out in TNET, and proteins were visualized by chemiluminescence (Reneaissance ECL, NEN) and autoradiography. Bands were quantitated using the NIH image program.
Therefore, we reasoned that a peptide encompassing this domain of HPV16 E2 might inhibit interaction between HPV16 E1 and E2, thereby inhibiting HPV16 DNA replication (FIG. 5). In order to test this possibility, HPV16 E2 and epitope tagged full length HPV16 E1 (EE16-E1) proteins were expressed separately using baculovirus vectors. EE-E1 and associated E2 proteins were immunoprecipitated using an anti-EE epitope monoclonal antibody. Precipitated E2 was detected by Western blot using polyclonal antiserum raised to the DNA binding domain of HPV16 E2 (35). As shown in lane 2 of FIG. 6A, E2 co-immunoprecipitated with EE16-E1, but was not precipitated by the EE epitope antibody in the absence of EE16-E1 (lane 1). Peptides encompassing HPV16 E2 amino acids 29-51 (E2N-WP23) or residues 33-47 (E2N-WP15) of HPV16 E2 were then tested for inhibition of E1-E2 interaction. These peptide sequences were derived from the sequence of HPV16 E2, and were based on an alignment of amino terminal residues that are conserved among the papillomavirus E2 proteins (FIG. 5). […] Both the HPV16 E2 protein itself and the E2 derived peptides act specifically in these assays, since the E39A replication defective HPV16 E2 mutant bound only slightly to EE16-E1 (lanes 14). […] These peptides are named E2N-MP23 and E2N-MP15, respectively (see FIG. 5). […] We have previously shown that a domain spanning amino acids 421-647 of the HPV16 E1 carboxy terminus is necessary and sufficient for E2 interaction (45).

Sequence: WKHMRLACAIYYKAR [E2N-MP15]
- inhibition of HPV16 E1-E2 interaction: did not inhibit E1-E2 interaction at concentrations at which the wild type peptide could do so
